Assay results: publication PMC6265900
pKi: −log10 of the molar value.

Experiments:
plasma kallikrein = assay: enzyme inhibition with chromogenic substrate (Dixon plot); enzyme (FXIIa 10 nM, plasma kallikrein 80 nM, trypsin 800 nM, elastase 400 nM) incubated with 0.5, 1 and 2 uM native poecistasin in 60 uL of 50 mM Tris buffer pH 7.4 for 5 min, then 0.2 mM chromogenic substrate; absorbance at 405 nm for 10 min; Ki from Dixon plot
factor XIIa = assay: as above

## native poecistasin (natural protein)
Plasma kallikrein
  pKi: 7.28
Factor XIIa
  pKi: 8.03
